# Assay results taken from IntAct's records for PubMed 11438675.
# B1: Nibrin (Homo sapiens), O60934 (parent)
# chain: MWKLLPAAGPAGGEPYRLLTGVEYVVGRKNCAILIENDQSISRNHAVLTANFSVTNLSQTDEIPVLTLKDNSKYGTFVNEEKMQNGFSRTLKSGDGITFGVFGSKFRIEYEPLVACSSCLDVSGKTALNQAILQLGGFTVNNWTEECTHLVMVSVKVTIKTICALICGRPIVKPEYFTEFLKAVESKKQPPQIESFYPPLDEPSIGSKNVDLSGRQERKQIFKGKTFIFLNAKQHKKLSSAVVFGGGEARLITEENEEEHNFFLAPGTCVVDTGITNSQTLIPDCQKKWIQSIMDMLQRQGLRPIPEAEIGLAVIFMTTKNYCDPQGHPSTGLKTTTPGPSLSQGVSVDEKLMPSAPVNTTTYVADTESEQADTWDLSERPKEIKVSKMEQKFRMLSQDAPTVKESCKTSSNNNSMVSNTLAKMRIPNYQLSPTKLPSINKSKDRASQQQQTNSIRNYFQPSTKKRERDEENQEMSSCKSARIETSCSLLEQTQPATPSLWKNKEQHLSENEPVDTNSDNNLFTDTDLKSIVKNSASKSHAAEKLRSNKKREMDDVAIEDEVLEQLFKDTKPELEIDVKVQKQEEDVNVRKRPRMDIETNDTFSDEAVPESSKISQENEIGKKRELKEDSLWSAKEISNNDKLQDDSEMLPKKLLLTEFRSLVIKNSTSRNPSGINDDYGQLKNFKKFKKVTYPGAGKLPHIIGGSDLIAHHARKNTELEEWLRQEMEVQNQHAKEESLADDLFRYNPYLKRRR
# Variants of: B1
# Settings: with chk2_human CHEK2, O96017
# Sequence of chk2_human CHEK2, O96017 (O96017 whole entry): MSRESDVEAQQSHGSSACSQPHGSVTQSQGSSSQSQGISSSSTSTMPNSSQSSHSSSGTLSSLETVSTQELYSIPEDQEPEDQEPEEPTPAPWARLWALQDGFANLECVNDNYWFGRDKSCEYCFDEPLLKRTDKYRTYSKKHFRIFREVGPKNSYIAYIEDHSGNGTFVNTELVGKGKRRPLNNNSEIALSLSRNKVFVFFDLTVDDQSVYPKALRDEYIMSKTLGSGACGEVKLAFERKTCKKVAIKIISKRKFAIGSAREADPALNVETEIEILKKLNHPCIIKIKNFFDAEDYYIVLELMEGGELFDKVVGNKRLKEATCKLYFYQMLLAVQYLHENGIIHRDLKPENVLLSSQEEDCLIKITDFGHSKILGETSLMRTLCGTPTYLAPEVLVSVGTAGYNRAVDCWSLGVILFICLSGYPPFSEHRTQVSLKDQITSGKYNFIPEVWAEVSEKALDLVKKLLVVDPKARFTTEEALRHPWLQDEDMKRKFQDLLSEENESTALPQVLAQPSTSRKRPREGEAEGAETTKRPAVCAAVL
row,Variant,effect of a mutation on the interaction
1,S343A,decreasing interaction
